# Data: PMC5027291, “The NF-YC–RGL2 module integrates GA and ABA signalling to regulate seed germination in Arabidopsis” (Nature Communications, 2016)
# B1: His-NF-YC4 (natural protein, Arabidopsis, UniProt Q9FMV5 1-250, looked up)
# chain: MDNNNNNNNQQPPPTSVYPPGSAVTTVIPPPPSGSASIVTGGGATYHHLLQQQQQQLQMFWTYQRQEIEQVNDFKNHQLPLARIKKIMKADEDVRMISAEAPILFAKACELFILELTIRSWLHAEENKRRTLQKNDIAAAITRTDIFDFLVDIVPREEIKEEEDAASALGGGGMVAPAASGVPYYYPPMGQPAVPGGMMIGRPAMDPSGVYAQPPSQAWQSVWQNSAGGGDDVSYGSGGSSGHGNLDSQG
# notes: NF-YC4 of Arabidopsis; coding region cloned into pQE30; source: E. coli Rosetta (DE3), purified (Ni-NTA agarose); not shown: His, N-terminal, kept
# B2: His-NF-YC3 (natural protein, Arabidopsis, UniProt Q9ZVL3 1-217, looked up)
# chain: MDQQGQSSAMNYGSNPYQTNAMTTTPTGSDHPAYHQIHQQQQQQLTQQLQSFWETQFKEIEKTTDFKNHSLPLARIKKIMKADEDVRMISAEAPVVFARACEMFILELTLRSWNHTEENKRRTLQKNDIAAAVTRTDIFDFLVDIVPREDLRDEVLGGVGAEAATAAGYPYGYLPPGTAPIGNPGMVMGNPGAYPPNPYMGQPMWQQPGPEQQDPDN
# notes: NF-YC3 of Arabidopsis; coding region cloned into pQE30; source: E. coli Rosetta (DE3), purified (Ni-NTA agarose); not shown: His, N-terminal, kept
# B3: His-NF-YC9 (natural protein, Arabidopsis, UniProt Q8L4B2 1-231, looked up)
# chain: MDQQDHGQSGAMNYGTNPYQTNPMSTTAATVAGGAAQPGQLAFHQIHQQQQQQQLAQQLQAFWENQFKEIEKTTDFKNHSLPLARIKKIMKADEDVRMISAEAPVVFARACEMFILELTLRSWNHTEENKRRTLQKNDIAAAVTRTDIFDFLVDIVPREDLRDEVLGSIPRGTVPEAAAAGYPYGYLPAGTAPIGNPGMVMGNPGGAYPPNPYMGQPMWQQQAPDQPDQEN
# notes: NF-YC9 of Arabidopsis; coding region cloned into pQE30; source: E. coli Rosetta (DE3), purified (Ni-NTA agarose); not shown: His, N-terminal, kept
# Target: T1, GST-RGL2 (Arabidopsis, UniProt Q8GXW1 1-547)
# T1 construct: RGL2 of Arabidopsis; coding region cloned into pGEX-4T-1; source: E. coli Rosetta (DE3), purified (Glutathione Sepharose beads); not shown: GST, N-terminal, kept
# T1 sequence (looked up): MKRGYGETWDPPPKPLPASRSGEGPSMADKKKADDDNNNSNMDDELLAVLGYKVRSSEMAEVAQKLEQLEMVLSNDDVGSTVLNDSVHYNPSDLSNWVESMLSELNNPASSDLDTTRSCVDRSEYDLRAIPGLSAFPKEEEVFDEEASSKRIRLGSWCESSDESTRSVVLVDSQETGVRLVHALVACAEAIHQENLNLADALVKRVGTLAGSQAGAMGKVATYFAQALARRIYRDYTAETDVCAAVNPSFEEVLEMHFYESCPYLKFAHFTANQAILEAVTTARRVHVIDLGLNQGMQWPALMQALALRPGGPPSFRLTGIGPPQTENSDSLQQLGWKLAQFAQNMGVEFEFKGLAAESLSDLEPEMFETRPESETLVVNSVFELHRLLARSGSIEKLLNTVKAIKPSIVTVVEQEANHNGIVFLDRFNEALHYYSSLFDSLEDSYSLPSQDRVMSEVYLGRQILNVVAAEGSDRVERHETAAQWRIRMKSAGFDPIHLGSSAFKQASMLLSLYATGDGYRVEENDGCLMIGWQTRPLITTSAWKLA
# Test: pull-down; 2 ug of His-NF-YCs incubated with GST or GST-RGL2 immobilised on Glutathione Sepharose beads; 50 mM Tris-HCl pH 8.0, 100 mM NaCl, 1 mM EDTA; 4 °C, 2 h; blots with anti-His and anti-GST
# Settings: both partners purified
row,Binder,binding result
1,B1,binds
2,B2,binds
3,B3,binds
